The values that follow are results of earlier work, collected in article PMC4752257.

The target of the data set is IL-4R alpha (Homo sapiens) (UniProt P24394).
Sequence of UniProt P24394 (P24394 26-232): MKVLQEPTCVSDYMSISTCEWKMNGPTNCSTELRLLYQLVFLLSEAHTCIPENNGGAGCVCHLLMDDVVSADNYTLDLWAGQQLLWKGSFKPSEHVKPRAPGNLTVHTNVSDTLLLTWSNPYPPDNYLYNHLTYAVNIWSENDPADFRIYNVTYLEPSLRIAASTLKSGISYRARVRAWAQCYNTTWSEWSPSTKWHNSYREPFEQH

For the substance IL-4 (from UniProt P05112), the Kd is 600 pM.
